Data published in patent publication US20200140562A1 (Innovent, published 2020).

T1: human OX40 on cells (CHO-hOX40, 293HEK-hOX40, Jurkat-hOX40, activated primary CD4+ T cells) (human, UniProt P43489 29-277)
T1 construct: whole, on cells; The cell type is told in each assay; also called CHO-OX40
T1 sequence (looked up): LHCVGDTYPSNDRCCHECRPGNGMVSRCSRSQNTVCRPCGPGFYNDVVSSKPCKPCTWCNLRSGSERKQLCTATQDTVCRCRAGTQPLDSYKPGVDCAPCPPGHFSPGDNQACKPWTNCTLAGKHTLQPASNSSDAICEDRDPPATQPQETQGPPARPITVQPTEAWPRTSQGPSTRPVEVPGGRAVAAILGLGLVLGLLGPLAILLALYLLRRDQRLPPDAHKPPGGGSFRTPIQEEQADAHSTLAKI

T2: mouse OX40Fc (Acro Biosystems) (mouse, UniProt P47741 20-211, limits assumed)
T2 construct: Bought; not shown: Fc
T2 sequence (looked up): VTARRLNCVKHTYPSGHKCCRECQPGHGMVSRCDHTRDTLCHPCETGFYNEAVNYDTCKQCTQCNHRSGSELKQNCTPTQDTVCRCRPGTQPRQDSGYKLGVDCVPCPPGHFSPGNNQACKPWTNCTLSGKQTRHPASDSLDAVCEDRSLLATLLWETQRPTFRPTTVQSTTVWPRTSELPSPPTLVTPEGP

T3: Human biotinylated OX40-His monomer (human, UniProt P43489 29-216, limits assumed, biotinylated)
T3 construct: Bought from Acro Biosystems; also called biotin-OX-40 monomer; not shown: His tag
T3 sequence (looked up): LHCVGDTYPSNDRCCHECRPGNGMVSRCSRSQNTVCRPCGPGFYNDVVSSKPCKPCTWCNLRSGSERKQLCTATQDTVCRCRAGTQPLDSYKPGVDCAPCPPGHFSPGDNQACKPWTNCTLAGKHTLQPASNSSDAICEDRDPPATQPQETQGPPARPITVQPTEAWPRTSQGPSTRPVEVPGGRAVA


Tests used:
[1] = target: T4, human OX40_Fc (R&D Systems) (human, UniProt P43489 29-216); experiment: BLI, hOX40-Fc on tip, Fab 200 nM, monovalent
T4 construct: Bought

[2] = target: T1, human OX40 on cells (CHO-hOX40, …); experiment: flow cytometry, CHO-hOX40, 100 nM
[3] = target: T2, mouse OX40Fc (Acro Biosystems); experiment: BLI, IgG1 on tip, mouse OX40-Fc in solution
[4] = target: T4, human OX40_Fc (R&D Systems); experiment: BLI, IgG1 on tip, hOX40-Fc 50 nM, avid
[5] = target: T1, human OX40 on cells (CHO-hOX40, …); experiment: flow cytometry, MFI on CHO-hOX40 over wild-type CHO
[6] = target: T5, cyno OX40_Fc (Acro Biosystems) (cyno); experiment: BLI, IgG1 on tip, cyno OX40-Fc 100 nM, avid
T5 construct: Bought
Method: Sensors with loaded antibodies were exposed to 100 nM OX40 antigens for 5 min, afterwards they were transferred to assay buffer for dissociation of 5 min for off-rate measurement. Kinetics was analysed using the 1:1 binding model.

[7] = target: T4, human OX40_Fc (R&D Systems); experiment: BLI, hOX40-Fc on tip, Fab 200 nM, monovalent; remark: listed apart in the source
[8] = target: T3, Human biotinylated OX40-His monomer; experiment: MSD-SET, biotinylated OX40-His monomer with Fab

Binder | Kd [1] [nM] | Kd [7] [nM] | Kd [8] [nM] | other results
ADI-20065, Fab (Fab, V domains shown) VH: QLQLQESGPGLVKPSETLSLTCTVSGGSISSSSYYWGWIRQPPGKGLEWIGSIYYSGSTYYNPSLKSRVTISVDTSKNQFSLKLSSVTAADTAVYYCARDPGYSASPNWFDPWGQGTLVTVSS VL: not shown | 10.8 |  |  | 
ADI-25652, IgG1 format (antibody, V domains shown, Made in yeast) VH: QVQLVESGGGVVQPGRSLRLSCAASGFTFVSYNMHWVRQAPGKGLEWVAVIAYDGSVKYYADSVKGRFTISRDNSKNTLYLQMNSLRAEDTAVYYCARGRPWYSETGTSAFDIWGQGTMVTVSS VL: DIQMTQSPSSLSASVGDRVTITCQASQDISNYLNWYQQKPGKAPKLLIYDASNLETGVPSRFSGSGSGTDFTFTISSLQPEDIATYYCQQSDHYPTFGGGTKVEIKR |  |  |  | CHO-OX40 binding intensity (MFI) [2]: 253000 MFI; binding result [3]: no binding (tested: 100 nM); Kd [4]: 0.261 nM; Fold difference [5]: 2400 fold; Kd [6]: 2.11 nM
ADI-25651, Fab (Fab, V domains shown) VH: QVQLVESGGGVVQPGRSLRLSCAASGFTFSSRNMHWVRQAPGKGLEWVAVIAYDGSLKYYADSVKGRFTISRDNSKNTLYLQMNSLRAEDTAVYYCARGRPWYSETGTSAFDIWGQGTMVTVSS VL: DIQMTQSPSSLSASVGDRVTITCQASQDISNYLNWYQQKPGKAPKLLIYDASNLETGVPSRFSGSGSGTDFTFTISSLQPEDIATYYCQQSDHYPTFGGGTKVEIKR |  | 2.32 | 0.17 | 
ADI-25650, Fab (Fab, V domains shown) VH: QVQLVESGGGVVQPGRSLRLSCAASGFTFSVYNMHWVRQAPGKGLEWVAVIAYDGSAKYYADSVKGRFTISRDNSKNTLYLQMNSLRAEDTAVYYCARGRPWYSETGTSAFDIWGQGTMVTVSS VL: DIQMTQSPSSLSASVGDRVTITCQASQDISNYLNWYQQKPGKAPKLLIYDASNLETGVPSRFSGSGSGTDFTFTISSLQPEDIATYYCQQSDHYPTFGGGTKVEIKR |  | 1.04 | 0.14 | 
ADI-25654, Fab (Fab, V domains shown) VH: QVQLVESGGGVVQPGRSLRLSCAASGFTFRSYDMHWVRQAPGKGLEWVAYIAYDGSNKYYADSVKGRFTISRDNSKNTLYLQMNSLRAEDTAVYYCARGRPWYSETGTSAFDIWGQGTMVTVSS VL: DIQMTQSPSSLSASVGDRVTITCQASQDISNYLNWYQQKPGKAPKLLIYDASNLETGVPSRFSGSGSGTDFTFTISSLQPEDIATYYCQQSDHYPTFGGGTKVEIKR |  | 1.8 | 0.18 | 
ADI-20112, Fab (Fab, V domains shown) VH: QVQLVESGGGVVQPGRSLRLSCAASGFTFSSYGMHWVRQAPGKGLEWVAVISYDGSNKYYADSVKGRFTISRDNSKNTLYLQMNSLRAEDTAVYYCARGRPWYSETGTSAFDIWGQGTMVTVSS VL: DIQMTQSPSSLSASVGDRVTITCQASQDISNYLNWYQQKPGKAPKLLIYDASNLETGVPSRFSGSGSGTDFTFTISSLQPEDIATYYCQQSDHYPTFGGGTKVEIKR | 70.6 | 63.9 |  | 
ADI-20113, Fab (Fab, V domains shown) VH: QVQLVESGGGVVQPGRSLRLSCAASGFTFSSYGMHWVRQAPGKGLEWVAVISYDGSNKYYADSVKGRFTISRDNSKNTLYLQMNSLRAEDTAVYYCARGRPWYSETGTSAFDIWGQGTMVTVSS VL: EIVMTQSPATLSVSPGERATLSCRASQSVSSNLAWYQQKPGQAPRLLIYSASTRATGIPARFSGSGSGTEFTLTISSLQSEDFAVYYCQQHNVYPPYTFGGGTKVEIKR | 182 |  |  | 
ADI-25652, Fab (Fab, V domains shown) VH: QVQLVESGGGVVQPGRSLRLSCAASGFTFVSYNMHWVRQAPGKGLEWVAVIAYDGSVKYYADSVKGRFTISRDNSKNTLYLQMNSLRAEDTAVYYCARGRPWYSETGTSAFDIWGQGTMVTVSS VL: DIQMTQSPSSLSASVGDRVTITCQASQDISNYLNWYQQKPGKAPKLLIYDASNLETGVPSRFSGSGSGTDFTFTISSLQPEDIATYYCQQSDHYPTFGGGTKVEIKR |  | 1.31 | 0.15 | 
ADI-25653, Fab (Fab, V domains shown) VH: QVQLVESGGGVVQPGRSLRLSCAASGFTFVSYNMHWVRQAPGKGLEWVAVIMYDGSAKYYADSVKGRFTISRDNSKNTLYLQMNSLRAEDTAVYYCARGRPWYSETGTSAFDIWGQGTMVTVSS VL: DIQMTQSPSSLSASVGDRVTITCQASQDISNYLNWYQQKPGKAPKLLIYDASNLETGVPSRFSGSGSGTDFTFTISSLQPEDIATYYCQQSDHYPTFGGGTKVEIKR |  | 1.63 | 0.086 | 
ADI-20118, Fab (Fab, V domains shown) VH: QVQLVQSGAEVKKPGASVKVSCKASGYTFTSYAISWVRQAPGQGLEWMGWISAYNGNTNYAQKLQGRVTMTTDTSTSTAYMELRSLRSDDTAVYYCARSGGGSGPNWFDPWGQGTLVTVSS VL: not shown | 137 |  |  | 
ADI-20051, Fab (Fab, V domains shown) VH: QVQLQQWGAGLLKPSETLSLTCAVYGGSFSGYYWSWIRQPPGKGLEWIGEIDHSGSTNYNPSLKSRVTISVDTSKNQFSLKLSSVTAADTAVYYCARDGGGGYASPFDYWGQGTLVTVSS VL: EIVMTQSPATLSVSPGERATLSCRASQSVSSNLAWYQQKPGQAPRLLIYGASTRATGIPARFSGSGSGTEFTLTISSLQSEDFAVYYCQQYHAWPPTFGGGTKVEIKR | 25.8 |  |  | 
ADI-23518, IgG1 format (antibody, V domains shown, Made in yeast) VH: QVQLQESGPGLVKPSQTLSLTCTVSGGSISSGASYWSWIRQHPGKGLEWIGYIYYSGETYYNPSLKSRVTISVDTSKNQFSLKLSSVTAADTAVYYCARDVGYPHYYGMDVWGQGTTVTVSS VL: EIVLTQSPGTLSLSPGERATLSCRASQSVSSSYLAWYQQKPGQAPRLLIYGASSRATGIPDRFSGSGSGTDFTLTISRLEPEDFAVYYCQQSERSPFTFGGGTKVEIKR |  |  |  | CHO-OX40 binding intensity (MFI) [2]: 173000 MFI; Kd [4]: 0.297 nM; Fold difference [5]: 1480 fold; Kd [6]: 1.08 nM
ADI-23518, Fab (Fab, V domains shown) VH: QVQLQESGPGLVKPSQTLSLTCTVSGGSISSGASYWSWIRQHPGKGLEWIGYIYYSGETYYNPSLKSRVTISVDTSKNQFSLKLSSVTAADTAVYYCARDVGYPHYYGMDVWGQGTTVTVSS VL: EIVLTQSPGTLSLSPGERATLSCRASQSVSSSYLAWYQQKPGQAPRLLIYGASSRATGIPDRFSGSGSGTDFTLTISRLEPEDFAVYYCQQSERSPFTFGGGTKVEIKR |  | 7.16 |  | 
ADI-23519, Fab (Fab, V domains shown) VH: QVQLQESGPGLVKPSQTLSLTCTVSGGSISSGSSYWSWIRQHPGKGLEWIGYIYMSGETYYNPSLKSRVTISVDTSKNQFSLKLSSVTAADTAVYYCARDVGYPHYYGMDVWGQGTTVTVSS VL: EIVLTQSPGTLSLSPGERATLSCRASQSVSSSYLAWYQQKPGQAPRLLIYGASSRATGIPDRFSGSGSGTDFTLTISRLEPEDFAVYYCQQSERSPFTFGGGTKVEIKR |  | 5.36 |  | 
ADI-20066, Fab (Fab, V domains shown) VH: QLQLQESGPGLVKPSETLSLTCTVSGGSISSSSYYWGWIRQPPGKGLEWIGSIYYSGSTYYNPSLKSRVTISVDTSKNQFSLKLSSVTAADTAVYYCARDPGYSASPNWFDPWGQGTLVTVSS VL: EIVLTQSPGTLSLSPGERATLSCRASQSVSSSFLAWYQQKPGQAPRLLIYGASSRATGIPDRFSGSGSGTDFTLTISRLEPEDFAVYYCQQYDVFPITFGGGTKVEIKR | 21.8 |  |  | 
ADI-23515, Fab (Fab, V domains shown) VH: QVQLQESGPGLVKPSQTLSLTCTVSGGSIRSGAYYWSWIRQHPGKGLEWIGYIYYDGQTYYNPSLKSRVTISVDTSKNQFSLKLSSVTAADTAVYYCARDVGYPHYYGMDVWGQGTTVTVSS VL: EIVLTQSPGTLSLSPGERATLSCRASQSVSSSYLAWYQQKPGQAPRLLIYGASSRATGIPDRFSGSGSGTDFTLTISRLEPEDFAVYYCQQSERSPFTFGGGTKVEIKR |  | 3.79 | 0.16 | 
ADI-23519, IgG1 format (antibody, V domains shown, Made in yeast) VH: QVQLQESGPGLVKPSQTLSLTCTVSGGSISSGSSYWSWIRQHPGKGLEWIGYIYMSGETYYNPSLKSRVTISVDTSKNQFSLKLSSVTAADTAVYYCARDVGYPHYYGMDVWGQGTTVTVSS VL: EIVLTQSPGTLSLSPGERATLSCRASQSVSSSYLAWYQQKPGQAPRLLIYGASSRATGIPDRFSGSGSGTDFTLTISRLEPEDFAVYYCQQSERSPFTFGGGTKVEIKR |  |  |  | Kd [4]: 0.255 nM; Kd [6]: 1.1 nM
